In patent US20200010507A1:
Where no end group is shown, it is not given here. [ ]: non-standard residue; d: D form. NMeE = CN[C@@H](CCC(=O)O)C(=O)O

Target: ex vivo seeds extracted from the hearts of eight ATTR patients
Assay: cell-based or functional assay

peptide concentration giving full inhibition of amyloid seeding (tested as the cocktail TabFH2): 360 µM
Binder: RRRRHVAHPFV[NMeE]FTE [TabF2]
